Measured values as given in article PMC2703826.

Molecular target: C-terminal hydrophilic (cytoplasmic) domain of non-structural protein 4 from mouse hepatitis virus strain A59, wild type (mouse hepatitis virus strain A59)
Assay: SEC; Superdex75, 50 mM Tris-Cl pH 8.5, 300 mM NaCl (legend: 150 mM NaCl), no reducing agent, 0.5 mL/min; calibrated with marker proteins

**Q.** For “C-terminal hydrophilic (cytoplasmic) domain of non-structural protein 4 from mouse hepatitis virus strain A59, wild type (domain or fragment)”, which stoichiometry N is on record?
**A.** The stoichiometry N was 2.
